Legend:
[1] = molecular target: T1, human CD3 on T cells (human, UniProt P07766 23-207); assay: cell-based or functional assay
[2] = molecular target: T1, human CD3 on T cells; assay: flow cytometry, human T-cells (as headed in Table 10)
[3] = molecular target: cynomolgus CD33 on CHO cells (cynomolgus monkey); assay: flow cytometry; KD on CHO-cynomolgus CD33 cells divided by KD on CHO-human CD33 cells
[4] = molecular target: T2, human CD33 on cells (human, UniProt P20138 18-364); assay: flow cytometry, HL-60 cells
T2 construct: whole, on cells; also called huCD33

[5] = molecular target: T2, human CD33 on cells; assay: flow cytometry, titration on KG-1 cells
[6] = molecular target: T2, human CD33 on cells; assay: cell-based or functional assay
[7] = molecular target: T2, human CD33 on cells; assay: flow cytometry, titration on HL-60 cells
[8] = molecular target: T1, human CD3 on T cells; assay: flow cytometry, titration on human CD3+ T cells (Jurkat per paragraph 124/paragraph 125)
[9] = molecular target: T2, human CD33 on cells; assay: flow cytometry, titration on U-937 cells

T1 sequence (P07766 23-207): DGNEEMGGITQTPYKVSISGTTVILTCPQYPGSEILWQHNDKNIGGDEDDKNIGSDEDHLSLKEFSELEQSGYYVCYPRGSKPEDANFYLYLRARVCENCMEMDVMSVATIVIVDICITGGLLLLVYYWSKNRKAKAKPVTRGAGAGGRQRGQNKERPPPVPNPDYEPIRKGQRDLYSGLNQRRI
T2 sequence (P20138 18-364): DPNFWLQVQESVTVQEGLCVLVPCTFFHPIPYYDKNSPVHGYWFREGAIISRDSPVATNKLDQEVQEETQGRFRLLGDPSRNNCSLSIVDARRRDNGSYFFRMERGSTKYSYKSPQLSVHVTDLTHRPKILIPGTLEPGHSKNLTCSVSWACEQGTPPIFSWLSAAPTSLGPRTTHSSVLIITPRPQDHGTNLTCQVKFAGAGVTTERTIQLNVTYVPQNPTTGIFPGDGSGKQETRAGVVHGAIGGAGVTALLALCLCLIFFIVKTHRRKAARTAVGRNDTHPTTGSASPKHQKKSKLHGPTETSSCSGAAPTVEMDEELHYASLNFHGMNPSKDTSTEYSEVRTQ

Row | CD25 Induction EC50 (pM) [1] | CD69 Induction EC50 (pM) [1] | T cell Proliferation in PBMC EC50 (pM) [1] | Kd [2] | KD ratio cynoCD33/ huCD33 [3] | Kd [4] | Kd [5] | Kd [7] | Kd [8] | Kd [9] | Binder | EC50 on HL-60 [pM] (cytotoxicity) [6]
1 | 10 pM | 6 pM | 6 pM | 1.9 nM | 0.8 | 0.5 nM | 1 nM | 0.5 nM | 1.9 nM | 1.7 nM | CD33/CD3 tandem diabody 10 (bispecific antibody, Non-covalent homodimer; domain order 1; also called TandAb 10) DIQMTQSPSSLSASVGDRVTITCRSSTGAVTTSNYANWVQQKPGKAPKGLIGGTNKRAPGVPSRFSGSLIGDKATLTISSLQPEDFATYYCALWYSNLWVFGQGTKVEIKGGSGGSQVQLVQSGAEVKKPGASVKVSCKASGYTFTSYDINWVRQAPGQGLEWMGWMNPNSGNTGFAQKFQGRVTMTRDTSTSTVYMELSSLRSEDTAVYYCARDRANTDYSFGMDVWGQGTLVTVSSGGSGQSVLTQPPSASGTPGQRVTISCSGSRSNIGSNTVNWYQQLPGTAPKLLIYGNNQRPSGVPDRFSGSKSGTSASLAISGLQSEDEADYYCATWDDSLIGWVFGGGTKLTVLGGSGGSEVQLVESGGGLVQPGGSLRLSCAASGFTFSTYAMNWVRQAPGKGLEWVGRIRSKYNNYATYYADSVKDRFTISRDDSKNSLYLQMNSLKTEDTAVYYCARHGNFGNSYVSWFAYWGQGTLVTVSSAAAGSHHHHHH | 7 pM
2 |  |  |  |  | 0.6 |  | 0.5 nM | 0.3 nM | 2.4 nM | 1.8 nM | CD33/CD3 tandem diabody 08 (bispecific antibody, Non-covalent homodimer; domain order 3 VL(CD33)-L1-VH(CD3)-L2-VL(CD3)-L3-VH(CD33); also called TandAb 08; tandem diabody 8) QSVLTQPPSASGTPGQRVTISCSGSRSNIGSNTVNWYQQLPGTAPKLLIYGNNQRPSGVPDRFSGSKSGSSASLAISGLQSEDEADYYCATWDDSLIGWVFGGGTKLTVLGGSGGSEVQLVESGGGLVQPGGSLRLSCAASGFTFSTYAMNWVRQAPGKGLEWVGRIRSKYNNYATYYADSVKDRFTISRDDSKNSLYLQMNSLKTEDTAVYYCARHGNFGNSYVSYFAYWGQGTLVTVSSGGSGGSDIQMTQSPSSLSASVGDRVTITCRSSTGAVTTSNYANWVQQKPGKAPKALIGGTNKRAPGVPSRFSGSLIGDKATLTISSLQPEDFATYYCALWYSNLWVFGQGTKVEIKGGSGGSQVQLVQSGAEVKKPGASVKVSCKASGYTFTSYDINWVRQAPGQGLEWMGWMNPNSGNTGFAQKFQGRVTMTRDTSTSTVYMELSSLRSEDTAVYYCARDRANTDFSYGMDVWGQGTLVTVSSAAAGSHHHHHH | 1.8 pM
3 |  |  |  |  | 3.1 |  | 16.3 nM | 3.4 nM | 1.9 nM | 15.1 nM | CD33/CD3 tandem diabody 18 (bispecific antibody, Non-covalent homodimer; domain order 2 VH(CD3)-L1-VL(CD33)-L2-VH(CD33)-L3-VL(CD3); also called TandAb 18) EVQLVESGGGLVQPGGSLRLSCAASGFTFSTYAMNWVRQAPGKGLEWVGRIRSKYNNYATYYADSVKDRFTISRDDSKNSLYLQMNSLKTEDTAVYYCARHGNFGNSYVSYFAYWGQGTLVTVSSGGSGGSQSVLTQPPSVSGAPGQRVTISCTGSSSNIGAGYDVHWYQQLPGTAPKLLIYGNSNRPSGVPDRFSGSKSGTSASLAITGLQAEDEADYYCQSYDSSLSDVVFGGGTKLTVLGGSGQVQLVQSGAEVKKPGESLKISCKGSGYSFTSYWIGWVRQMPGKGLEWMGIIYPGDSDTRYSPSFQGQVTISADKSISTAYLQWSSLKASDTAMYYCARHKRGSDAFDIWGQGTTVTVSSGGSGGSDIQMTQSPSSLSASVGDRVTITCRSSTGAVTTSNYANWVQQKPGKAPKALIGGTNKRAPGVPSRFSGSLIGDKATLTISSLQPEDFATYYCALWYSNLWVFGQGTKVEIKAAAGSHHHHHH | 6.3 pM
